Reference: patent publication US20240400701A1 (LANOVA MEDICINES DEVELOPMENT, published 2024)
Changes are numbered by the printed parent chain.

T1: human AMHRII (anti-Mullerian hormone receptor type 2) (human, UniProt Q16671 18-573)
T1 construct: whole, on cells; also called AMHR2; human AMHR2
T1 sequence (looked up): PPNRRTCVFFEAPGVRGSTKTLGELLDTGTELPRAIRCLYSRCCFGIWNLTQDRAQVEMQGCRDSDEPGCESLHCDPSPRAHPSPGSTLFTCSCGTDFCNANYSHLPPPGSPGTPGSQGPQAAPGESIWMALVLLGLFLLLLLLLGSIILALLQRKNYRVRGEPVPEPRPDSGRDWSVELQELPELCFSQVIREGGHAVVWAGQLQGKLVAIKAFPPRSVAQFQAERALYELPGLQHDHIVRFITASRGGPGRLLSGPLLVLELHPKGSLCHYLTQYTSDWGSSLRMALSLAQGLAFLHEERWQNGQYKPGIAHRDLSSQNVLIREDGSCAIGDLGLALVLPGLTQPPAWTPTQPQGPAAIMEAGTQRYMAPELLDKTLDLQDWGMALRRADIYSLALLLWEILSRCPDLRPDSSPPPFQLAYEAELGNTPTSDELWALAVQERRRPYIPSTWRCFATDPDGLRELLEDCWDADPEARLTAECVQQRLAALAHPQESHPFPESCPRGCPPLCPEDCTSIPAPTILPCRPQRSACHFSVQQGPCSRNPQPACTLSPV

B1: 31D9B3 H1L2 hIgG1 (antibody, V domains shown)
VH: QVQLVQSGAEVKKPGASVKVSCKASGYTFTDYWVSWVRQAPGQGLEWMGEIYPKNGVSNFNEKFKGRVTMTTDTSTSTAYMELRSLRSDDTAVYYCARQRDYWGQGTLVTVSS
VL: DVVMTQSPLSLPVTLGQPASISCRSSQSLEYGDGYTYLEWYLQRPGQSPRLLIYGVSNRFSGVPDRFSGSGSGTDFTLKISRVEAEDVGVYYCFQATHDPNTFGQGTKLEIK
notes: Humanized, human IgG1; also called 31D9B3 H1L2 hlgG1; 31D9B3 VH1-VL2 hlgG1
B2: 31D9B3 H1L4 hIgG1 (antibody, V domains shown)
VH: B1 VH
VL: B1 VL with M4L, R50Q, S68I, A85P, Q105A
notes: Humanized, human IgG1; also called 31D9B3 H1L4 hlgG1
B3: 31D9B3 H2L4 hIgG1 (antibody, V domains shown)
VH: B1 VH with K12V, M48I, T72V, A97T
VL: B1 VL with M4L, R50Q, S68I, A85P, Q105A
notes: Humanized, human IgG1; also called 31D9B3 H2L4 hlgG1
B4: 31D9B3 H1L1 hIgG1 (antibody, V domains shown)
VH: B1 VH
VL: B1 VL with Y41F, L42Q, L51R
notes: Humanized, human IgG1; also called 31D9B3 H1L1 hlgG1
B5: 31D9B3 H2L1 hIgG1 (antibody, V domains shown)
VH: B1 VH with K12V, M48I, T72V, A97T
VL: B1 VL with Y41F, L42Q, L51R
notes: Humanized, human IgG1; also called 31D9B3 H2L1 hlgG1
B6: 31D9B3 H2L2 hIgG1 (antibody, V domains shown)
VH: B1 VH with K12V, M48I, T72V, A97T
VL: B1 VL
notes: Humanized, human IgG1; also called 31D9B3 H2L2 hlgG1
B7: 31D9B3 H1L3 hIgG1 (antibody, V domains shown)
VH: B1 VH
VL: B1 VL with S68I, Q105A
notes: Humanized, human IgG1; also called 31D9B3 H1L3 hlgG1
B8: 31D9B3 H2L3 hIgG1 (antibody, V domains shown)
VH: B1 VH with K12V, M48I, T72V, A97T
VL: B1 VL with S68I, Q105A
notes: Humanized, human IgG1; also called 31D9B3 H2L3 hlgG1
B9: xi103C5G10F9 hIgG1 (antibody, V domains shown)
VH: DVQLQESGPGLVKPSQSLSLTCTVTGYSITSDYAWNWIRQFPGNKLEWMGYISYSGSTSYNPSLKSRISITRDTSKNQFFLQLNSVTTEDTATYYCARSRYSWFDYWGQGTLVTVSA
VL: DIVLTQSPTSLAVSLGQRATLSCSASESVDTYGNSFMHWYQQKPGQSPKLLIYRASSLESGIPARFSGSGSRTDFTLTINPVEAADVATYYCQQSNEDPYTFGGGTKLEIK
notes: Murine variable domains in human chimeric format, human IgG1; also called 103C5G10F9 (chimeric)
B10: xi114A2B5 hIgG1 (antibody, V domains shown)
VH: B9 VH
VL: B9 VL with T9A, S24R
notes: Murine variable domains in human chimeric format, human IgG1; also called 114A2B5 (chimeric)
B11: xi35D4G3 hIgG1 (antibody, V domains shown)
VH: QVRLLQSGAALVKPGASAKMSCKASGYTFTDYWVSWVKQSHGKSLEWIGEIYPDNGITNFNEKFKGKATLTVDKSTRTAYMELSRLTSEDSAIYYCTRQRDYWGQGVMVTVSS
VL: DVVLTQTPGSLSVTLGDQVSISCRSSQSLKYGDGYTYLEWYLQKPGQSPQLLFYGVSNRFSGVPDRFIGSGSGTDFTLKISRVEPEDLGVYYCFQATHDPNTFGTGTKLDLK
notes: Murine variable domains in human chimeric format, human IgG1; also called 35D4G3 (chimeric)
B12: 94C4C3 H4L3 hIgG1 (antibody, V domains shown)
VH: QVQLQESGPGLVKPSETLSLTCTVTGYSITSDYAWNWIRQFPGKKLEWMGYISYSGSISYNPSLKSRITISRDTSKNQFFLQLSSVTAADTAVYYCARSRYSWFDYWGQGTLVTVSS
VL: EIVLTQSPGTLSLSPGERATLSCSASESVDTYGNSFMHWYQQKPGQPPRLLIYRASSLESGIPVRFSGSGSRTDFTLTISRVEAEDFAVYYCQQSNEDPYTFGGGTKLEIK
notes: Humanized, human IgG1; also called 94C4C3 H4L3 hlgG1
B13: 94C4C3 H4L4 hIgG1 (antibody, V domains shown)
VH: B12 VH
VL: B12 VL with E1D, L13V, R49K
notes: Humanized, human IgG1; also called 94C4C3 H4L4 hlgG1
B14: 31D9B3 H4L3 hIgG1 (antibody, V domains shown)
VH: QVQLVQSGAEVVKPGASVKMSCKASGYTFTDYWVSWVKQSPGQGLEWIGEIYPKNGVSNFNEKFKGKATLTVDKSTSTAYMELRRLRSDDTAVFYCTRQRDYWGQGVLVTVSS
VL: B1 VL with S68I, Q105A
notes: Humanized, human IgG1; also called 31D9B3 H4L3 hlgG1
B15: 31D9B3 H4L2 hIgG1 (antibody, V domains shown)
VH: B14 VH
VL: B1 VL
notes: Humanized, human IgG1; also called 31D9B3 H4L2 hlgG1
B16: 31D9B3 H4L1 hIgG1 (antibody, V domains shown)
VH: B14 VH
VL: B1 VL with Y41F, L42Q, L51R
notes: Humanized, human IgG1; also called 31D9B3 H4L1 hlgG1
B17: 31D9B3 H4L4 hIgG1 (antibody, V domains shown)
VH: B14 VH
VL: B1 VL with M4L, R50Q, S68I, A85P, Q105A
notes: Humanized, human IgG1; also called 31D9B3 H4L4 hlgG1
B18: 31D9B3 H3L4 hIgG1 (antibody, V domains shown)
VH: B14 VH with V12K, K13V, K38R, K67R, A68V, R85S, F94Y
VL: B1 VL with M4L, R50Q, S68I, A85P, Q105A
notes: Humanized, human IgG1; also called 31D9B3 H3L4 hlgG1
B19: 31D9B3 H3L3 hIgG1 (antibody, V domains shown)
VH: B14 VH with V12K, K13V, K38R, K67R, A68V, R85S, F94Y
VL: B1 VL with S68I, Q105A
notes: Humanized, human IgG1; also called 31D9B3 H3L3 hlgG1
B20: 31D9B3 H3L1 hIgG1 (antibody, V domains shown)
VH: B14 VH with V12K, K13V, K38R, K67R, A68V, R85S, F94Y
VL: B1 VL with Y41F, L42Q, L51R
notes: Humanized, human IgG1; also called 31D9B3 H3L1 hlgG1
B21: 31D9B3 H3L2 hIgG1 (antibody, V domains shown)
VH: B14 VH with V12K, K13V, K38R, K67R, A68V, R85S, F94Y
VL: B1 VL
notes: Humanized, human IgG1; also called 31D9B3 H3L2 hlgG1

molecular target: T1, human AMHRII (anti-Mullerian hormone …); assay: FACS on CHO-K1 cells over-expressing human AMHR2
Method: (§1) CHO-K1 cells over-expressed AMHR2 were harvested from flasks. 100 μl of 1×10⁶ cells/ml of cells were incubated with the humanized antibodies in 3-fold serial dilutions starting from 300 nM to 0.001 nM for 30 minutes on ice. After being washed with 200 μl of FACS buffer twice, cells were incubated with secondary antibody for 30 minutes on ice. Cells were washed with 200 μl of FACS buffer twice and analyzed by FACS.

EC50	Top (MFI)	Binder
1.49 nM	36200 MFI	B1
1.42 nM	34100 MFI	B2
1.67 nM	39200 MFI	B3
89.1 nM	8940 MFI	B4
22.5 nM	19100 MFI	B5
1.58 nM	37900 MFI	B6
1.36 nM	34700 MFI	B7
1.28 nM	36700 MFI	B8

molecular target: T1, human AMHRII (anti-Mullerian hormone …); assay: FACS on Rko cells over-expressing human AMHR2
Method: as §1, with “Rko” for “CHO-K1”, “over-expressing” for “over-expressed”, “primary PTM” for “the humanized”

EC50	Top (MFI)	Binder
1.21 nM	18300 MFI	B1

molecular target: T1, human AMHRII (anti-Mullerian hormone …); assay: FACS on CHO-K1 cells over-expressing human AMHR2; remark: another data set of the same source
Method: as §1

EC50	Top (MFI)	Binder
1.06 nM	26700 MFI	B1

molecular target: T1, human AMHRII (anti-Mullerian hormone …); assay: cell-based or functional assay

ADCC reporter bioassay, EC50	ADCC reporter bioassay, Top (MFI)	Binder
0.39 nM	13900 MFI	B9
0.34 nM	14100 MFI	B10
0.25 nM	14500 MFI	B11

molecular target: T1, human AMHRII (anti-Mullerian hormone …); assay: FACS on CHO-K1 cells over-expressing human AMHR2; remark: another data set of the same source
Method: as §1

EC50	Top (MFI)	Binder
1.16 nM	51100 MFI	B12
1.09 nM	57900 MFI	B13

molecular target: T1, human AMHRII (anti-Mullerian hormone …); assay: FACS on Rko cells over-expressing human AMHR2; remark: another data set of the same source
Method: Similarly, the binding of these antibodies was tested with Rko cells that over-expressed AMHR2. 100 μl of 1×10⁶ cells/ml of cells were incubated with the antibodies in 3-fold serial dilutions starting from 300 nM to 0.002 nM for 30 minutes on ice. After being washed with 200 μl of FACS buffer twice, cells were incubated with secondary antibody for 30 minutes on ice. Cells were washed with 200 μl of FACS buffer twice and analyzed by FACS.

EC50	Top (MFI)	Binder
0.43 nM	8580 MFI	B9
0.52 nM	8330 MFI	B10
0.49 nM	8290 MFI	B11

molecular target: T1, human AMHRII (anti-Mullerian hormone …); assay: FACS on CHO-K1 cells over-expressing human AMHR2; remark: another data set of the same source
Method: as §1

EC50	Top (MFI)	Binder
0.83 nM	36000 MFI	B14
0.84 nM	36200 MFI	B15
2.18 nM	16100 MFI	B16
0.75 nM	37200 MFI	B17
1.01 nM	36400 MFI	B18
1.3 nM	38000 MFI	B19
3.01 nM	19600 MFI	B20
1.05 nM	37900 MFI	B21

molecular target: T1, human AMHRII (anti-Mullerian hormone …); assay: FACS on CHO-K1 cells over-expressing human AMHR2; remark: another data set of the same source
Method: CHO-K1 cells that over-expressed AMHR2 were harvested from flasks. 100 μl of 1×10⁶ cells/ml of cells were incubated with primary chimeric antibodies (or with positive reference antibody Ref.Ab) in 3-fold serial dilutions starting from 300 nM to 0.002 nM for 30 minutes on ice. After being washed with 200 μl of FACS buffer twice, cells were incubated with secondary antibody for 30 minutes on ice. Cells were washed with 200 μl of FACS buffer twice and analyzed by FACS.

EC50	Top (MFI)	Binder
1.08 nM	124000 MFI	B9
1.04 nM	127000 MFI	B10
0.11 nM	114000 MFI	B11
